Results on 5 compounds are retold here after patent publication US6436654B1, “Methods for identifying compounds that modulate HIF-1α” (Pharmacia & Upjohn AB, priority 1998, dated 2002).

Assay [1] concerns COS7 cells. Briefly: Subcellular distribution of GFP-HIF-1α chimeras in living cells (fluorescence microscopy, cell counting). The assay is classed as cell-based, simian.
Assay [2] concerns GAL4 responsive reporter plasmid. Briefly: Cotransfection of GAL4-HIF-1α fusion proteins with GAL4 responsive luciferase reporter. The assay is classed as cell-based, simian. From the text: To analyze functional activities of HIF-1α independently of the endogenous DNA binding and dimerization domains and the Arnt partner, we next fused HIF-1α to the heterologous DNA binding domain of GAL4. Functional activity of the fusion protein was monitored in COS7 cells by a cotransfection assay using a reporter gene construct carrying five GAL4 DNA binding elements in front of thymidine kinase promoter and the luciferase gene. Six hours after transfection media was changed, and cells were either left uninduced or exposed to 1% oxygen for 30 h prior to harvest. In the presence of either empty expression vector or a vector expressing the minimal GAL4 DNA binding domain, reporter gene activity was unaltered by reduced oxygen levels. […] The GAL4 DNA binding domain is known to harbor an NLS motif capable of taking fusion proteins to the nucleus (Ma and Ptashne (1987) Cell 51, 113-119). We therefore used antibodies directed against the DNA binding domain of GAL4 to examine in both normoxic and hypoxic cells the intracellular localization of the GAL4-HIF-1α fusion protein by immunofluorescence.
Transcriptional activity of GFP and GAL4 fusion constructs was analyzed in a cotransfection assay where effector plasmids (0.2 μg/30-mm dish) together with a reporter gene (1.5 μg/30-mm dish) were introduced into COS7 or HeLa cells. […]

For assay [3], the target named is GST/Ref-1 (Homo sapiens, UniProt P27695). Put plainly: Pull-down of [35S]methionine-labeled GAL4/HIF proteins with GST/Ref-1. The conditions noted are these: presence or absence of diamide. In kind it is binding. As for the experimental part:
The precise mechanism by which Ref-1 activates HIF-1α is not known. […] To further investigate whether Ref-1 could interact with HIF-1α, we tried to trap the interaction by using a crosslinking reagent such as diamide, which oxidizes cysteine sulfhydryls to disulfides. A series of experiments was performed with GST-tagged purified Ref-1. [^35S]methionine-labeled in vitro translated GAL4/HIF 1-826 was incubated with GST/Ref-1 in the presence or absence of diamide.
Next, we tried a series of pull-down experiments with [^35S]methionine-labeled in vitro translated GAL4/HIF […] and GAL4/HIF 531-584. […] An interaction between GAL4/HIF […] and GST/Ref-1 was also detected, and this interaction was enhanced in the presence of diamide. In excellent agreement with this observation the C-TAD contains two cysteine residues. […] Immunoblot analysis verified that the input concentrations of GST/Ref-1 or GST alone were similar.

Assay [4] relates to hypoxia responsive reporter gene (HRE-luc). Put plainly: Cotransfection of GFP-HIF-1α fusion constructs with hypoxia responsive reporter gene (HRE-luc). The assay is classed as cell-based, simian. Particulars: 1% O2 vs normoxia, no CBP. From the text:
We next examined the ability of GFP-HIF-1α fusion proteins in functional cotransfection assays where GFP-HIF-1α expression vectors were introduced into COS7 cells together with a hypoxia-responsive gene reporter construct carrying three tandem copies of the erythropoietin hypoxia responsive element (HRE) in front of the Herpes simplex thymidine kinase promoter and the luciferase gene. […] This reporter gene activity was further stimulated about 4-fold by hypoxia (FIG. 6A). In control experiments, transient expression of wild-type HIF-1α also yielded a similar pattern of reporter gene activation, albeit with a slightly lower potency generating about a 2-fold activation response upon exposure to hypoxia. […] In fact, stabilization of the fusion protein (FIG. 2C) by the GFP moiety may rather have enhanced the potency of the activation response produced by HIF-1α.
Transcriptional activity of GFP and GAL4 fusion constructs was analyzed in a cotransfection assay where effector plasmids (0.2 μg/30-mm dish) together with a reporter gene (1.5 μg/30-mm dish) were introduced into COS7 or HeLa cells. The reporter plasmid encoded firefly luciferase gene under the control of thymidine kinase minimal promoter and either five or three copies of GAL4 or HIF-responsive elements, respectively.

The target in assay [5] is T1, HIF-1α/Arnt complex (Homo sapiens, UniProt Q16665).
T1 construct: expression plasmid for full-length HIF-1α (pCMV-HIF-1α); expressed in transfected cells
T1 sequence (Q16665 whole entry): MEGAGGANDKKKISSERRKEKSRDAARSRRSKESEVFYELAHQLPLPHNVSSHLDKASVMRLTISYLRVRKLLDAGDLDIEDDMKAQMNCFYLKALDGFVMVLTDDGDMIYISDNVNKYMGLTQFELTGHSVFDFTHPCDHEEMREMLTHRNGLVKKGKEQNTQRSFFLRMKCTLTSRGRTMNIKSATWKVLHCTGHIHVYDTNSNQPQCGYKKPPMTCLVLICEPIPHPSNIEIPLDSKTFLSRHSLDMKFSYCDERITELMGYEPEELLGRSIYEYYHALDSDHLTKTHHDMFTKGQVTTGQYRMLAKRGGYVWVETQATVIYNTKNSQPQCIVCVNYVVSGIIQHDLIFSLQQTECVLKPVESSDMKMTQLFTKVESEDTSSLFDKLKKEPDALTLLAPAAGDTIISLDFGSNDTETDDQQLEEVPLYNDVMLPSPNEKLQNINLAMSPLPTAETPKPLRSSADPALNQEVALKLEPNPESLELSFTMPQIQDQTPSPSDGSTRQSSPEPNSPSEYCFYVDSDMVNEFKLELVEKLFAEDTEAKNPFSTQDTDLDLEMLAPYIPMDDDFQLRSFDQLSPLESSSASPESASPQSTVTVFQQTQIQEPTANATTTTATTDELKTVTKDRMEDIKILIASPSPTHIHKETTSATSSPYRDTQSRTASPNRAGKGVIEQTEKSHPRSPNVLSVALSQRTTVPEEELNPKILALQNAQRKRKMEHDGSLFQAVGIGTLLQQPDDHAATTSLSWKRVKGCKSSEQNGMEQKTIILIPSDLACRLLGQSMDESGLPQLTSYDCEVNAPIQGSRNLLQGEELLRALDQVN
T1 sequence (P27540 whole entry partner): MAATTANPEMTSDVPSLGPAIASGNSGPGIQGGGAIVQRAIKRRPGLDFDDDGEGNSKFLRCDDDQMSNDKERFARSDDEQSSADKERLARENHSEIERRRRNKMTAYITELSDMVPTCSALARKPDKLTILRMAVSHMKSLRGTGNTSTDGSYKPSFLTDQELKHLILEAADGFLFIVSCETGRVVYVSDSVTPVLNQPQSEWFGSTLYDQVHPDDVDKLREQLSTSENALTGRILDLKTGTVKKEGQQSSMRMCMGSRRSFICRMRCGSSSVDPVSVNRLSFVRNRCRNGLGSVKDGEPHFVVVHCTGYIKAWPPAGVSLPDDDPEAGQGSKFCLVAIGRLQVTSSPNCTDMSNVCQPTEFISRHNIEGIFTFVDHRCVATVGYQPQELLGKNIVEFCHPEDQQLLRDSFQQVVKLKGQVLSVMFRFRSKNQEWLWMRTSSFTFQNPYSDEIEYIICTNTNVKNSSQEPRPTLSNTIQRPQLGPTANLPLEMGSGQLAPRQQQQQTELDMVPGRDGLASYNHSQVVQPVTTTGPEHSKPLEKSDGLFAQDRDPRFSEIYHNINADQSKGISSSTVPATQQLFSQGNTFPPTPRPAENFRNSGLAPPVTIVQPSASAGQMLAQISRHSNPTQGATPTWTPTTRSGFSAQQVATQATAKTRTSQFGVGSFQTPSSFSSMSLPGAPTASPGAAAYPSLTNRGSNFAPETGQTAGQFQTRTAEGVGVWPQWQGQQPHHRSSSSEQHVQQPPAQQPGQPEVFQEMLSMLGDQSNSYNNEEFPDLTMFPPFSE
Put plainly: pT81/HRE-Luc reporter assay with HIF-1α, Arnt and coactivators (CBP, TIF2, SRC-1). In kind it is cell-based. As for the experimental part:
FIG. 8 The transcriptional coactivator TIF2 enhances the HIF-1α-mediated transactivation function and interacts with HIF-1α in vivo. COS7 cells were transiently cotransfected as described in Materials and Methods with 0.5 μg pT81/HRE-Luc reporter construct, hHIF1-α expression vector (pCMV4/HIF-1α, 0.2 μg), Arnt expression vector (pCMV4/Arnt, 0.2 μg) and 0.75-1.5 μg of either TIF2 (pSG5/TIF2) or CBP (Rc/RSV-CBP-HA), as indicated. The total amount of DNA was kept constant by the addition of parental pCMV4 when appropriate. Following transfection cells were incubated either under normoxic (21% O2) or hypoxic conditions (1% O2). Luciferase activities were normalized for transfection efficiency by cotransfection of alkaline phosphatase expressing pRSV-AF. Data are presented as luciferase activity relative to cells transfected with pCMV4 and reporter gene only and incubated at normoxia. Values represent the mean ±S.E. of two independent experiments.
(§1) FIG. 9 The transcriptional coactivator SRC-1 stimulates HIF-1α activity in a hypoxia-dependent manner and interacts in vitro with HIF-1α. (A) COS7 and (B) human embryonic kidney 293 cells were cotransfected with pT81/HRE-Luc (0.5 μg), 0.2 μg of pCMV4/HIF-1α (hHIF1-α), 0.2 μg of pCMV4/Arnt (Arnt), and 0.75-1.5 μg of SRC-1 (pSG5/SRC-1), as indicated. Six h after transfection cells were exposed to either 21 or 1% O2 for 36 h before harvest. Luciferase values are presented as relative luciferase activity as described in the legend to FIG. 1. The results of three independent experiments performed in duplicate ±S.E. are shown. (C) SRC-1 PAS domain is not required for functional interaction with HIF-1α. (Top) Schematic representation of full-length SRC-1 and SRC-1ΔPAS. (Bottom) pGAL4/HIF 71-826 was cotransfected into COS7 cells together with a reporter plasmid expressing the luciferase gene driven by the thymidine kinase minimal promoter under the control of five copies of GAL4-binding sites, and 1.5 μg of either full-length SRC-1 or a deletion mutant of SRC-1, SRC-1ΔPAS, lacking the PAS domain. Cells were exposed to 21 or 1% O2 for 36 h before harvest and reporter gene assays. Luciferase values are presented as relative luciferase activity as described in the legend to FIG. 1. The results of two independent experiments performed in duplicate +S.E. are shown. (D) In vitro interaction between SRC-1 and HIF-1α. COS7 cells were transfected with 10 μg of the expression plasmid pGST-HIF-1α (GST-HIF) or empty GST expression vector (GST). Cells were exposed to either 100 μM CoCl2 or vehicle (H2O) for 24 h. […] The eluted material was analyzed on 5% SDS-PAGE and visualized by fluorography. ⅕×Input represents one-fifth of the amount of [^35S]methionine-labeled SRC-1 used in the binding reactions. […]

In assay [6] the target is T2, GST-HIF-1α (Homo sapiens, UniProt Q16665).
T2 construct: expressed in transfected cells; host or cells: COS7 cells, treated with 100 μM CoCl2 or vehicle; whole cell extract used
T2 sequence (Q16665 whole entry): as the sequence (Q16665 whole entry) above
Put plainly: GST precipitation assay of in vitro translated [35S]labeled SRC-1 with GST-HIF-1α. In kind it is binding. As for the experimental part:
as §1, with “assays.” for “assays. Luciferase values are presented as relative luciferase activity as described in the legend to FIG. 1. The results of two independent experiments performed in duplicate +S.E. are shown. (D) In vitro interaction between SRC-1 and HIF-1α. COS7 cells were transfected with 10 μg of the expression plasmid pGST-HIF-1α (GST-HIF) or empty GST expression vector (GST). Cells were exposed to either 100 μM CoCl2 or vehicle (H2O) for 24 h.”

Sequence of GST/Ref-1 (P27695 whole entry, species assumed, the tested form may be a part): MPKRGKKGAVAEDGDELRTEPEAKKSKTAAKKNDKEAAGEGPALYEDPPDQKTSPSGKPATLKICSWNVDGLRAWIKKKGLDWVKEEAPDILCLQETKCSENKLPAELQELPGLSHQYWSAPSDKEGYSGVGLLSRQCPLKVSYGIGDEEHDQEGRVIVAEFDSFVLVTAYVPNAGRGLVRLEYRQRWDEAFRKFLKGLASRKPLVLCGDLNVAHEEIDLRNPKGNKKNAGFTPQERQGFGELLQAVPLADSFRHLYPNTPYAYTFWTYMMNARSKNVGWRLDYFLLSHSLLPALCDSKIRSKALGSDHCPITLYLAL

On to `[Cl-].[Cl-].[Co+2]` [CoCl2], for which the “effect on nuclear import of GFP-HIF-1α” value in assay [1] is “induced nuclear import of GFP-HIF-1α”.
Regarding “GAL4-HIF-1α: full length HIF-1α fused to the GAL4 DNA binding domain”, the “hypoxia-dependent activation of GAL4 reporter gene activity” value in assay [2] (1% O2 vs normoxia, no exogenous coactivator) is listed as “about 2 fold”. In addition, the “stimulation of GAL4 reporter activity by coexpressed CBP” value in assay [2] (hypoxic conditions, vs hypoxia without exogenous coactivator) came out at 19 fold. Besides, the “binding to GST/Ref-1 (in words)” value in assay [3] is given as “weakly bind GST/Ref-1”.
With “HIF-1α: transiently expressed wild-type human hypoxia-inducible factor-1α”, in assay [4], the “stimulation of HRE reporter gene activity by hypoxia compared to normoxia” value was “about 2 fold”. Moreover, the “increase of reporter gene activity by hypoxia” value in assay [5] (coexpression of HIF-1α and Arnt, 1% O2) is given as approximately 1.5 fold. Further, the “stimulation of pT81/HRE-luc reporter gene activity” value in assay [5] (coexpression of HIF-1α and Arnt, normoxic conditions) was “around 10 fold”.
Take “SRC-1: p160 family transcriptional coactivator”: the “enhancement of transcriptional activity of HIF-1α” value in assay [5] (normoxic conditions, COS7) was “around 3 fold”. Also, the “binding to GST-HIF-1α (in words)” value in assay [6] (extract of cells treated with 100 μM CoCl2) is given as “specifically retained”; in assay [6] (extract of non-treated cells) it was “no significant binding”.
“TIF2: p160 family transcriptional coactivator”: the “activation of the reporter gene over the levels observed at normoxia” value in assay [5] (coexpression with HIF-1α, COS7) is “around 12 fold”.
